Source: patent US6001353A, “20α-alpha-hydroxy steroid dehydrogenase related material and methods” (priority 1997, dated 1999)

T1: recombinant 20α-HSD (Rattus norvegicus, UniProt P51652)
T1 sequence (P51652 1-323): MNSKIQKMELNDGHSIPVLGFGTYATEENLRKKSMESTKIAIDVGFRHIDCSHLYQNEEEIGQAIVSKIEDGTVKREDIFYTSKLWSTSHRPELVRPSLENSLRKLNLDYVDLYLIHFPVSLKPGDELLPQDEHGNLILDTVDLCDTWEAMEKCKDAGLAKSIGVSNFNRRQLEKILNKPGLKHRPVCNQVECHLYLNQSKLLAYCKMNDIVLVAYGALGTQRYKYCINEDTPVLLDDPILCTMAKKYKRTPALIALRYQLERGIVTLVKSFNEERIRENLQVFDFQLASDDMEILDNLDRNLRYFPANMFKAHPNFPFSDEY

B1: 20α-hydroxysteroid dehydrogenase (protein)
chain: T1 sequence (P51652 1-323)
B2: prolactin (protein, UniProt P01240 31-229, looked up)
Prolactin: TPVCPNGPGNCQVSLRDLFDRAVMVSHYIHNLSSEMFNEFDKRYAQGKGFITMALNSCHTSSLPTPEDKEQAQQTHHEVLMSLILGLLRSWNDPLYHLVTEVRGMKGVPDAILSRAIEIEEENKRLLEGMEMIFGQVIPGAKETEPYPVWSGLPSLQTKDEDARHSAFYNLLHCLRRDSSKIDTYLKLLNCRIIYNNNC
notes: prolactin (NIADDK oPRL-18)

Key:
[1] = Cyclooxygenase assay: conversion of [3H]arachidonic acid; assay type: biochemical; conditions: purified preparations from either expression system
Protocol: (§1) To test for prostaglandin endoperoxide synthase type catalytic activity of recombinant 20α-HSD, both cyclooxygenase activity (which converts arachidonic acid into the hydroperoxide, PGG2) and peroxidase activity (which reduces PGG2 and other hydroperoxides to the corresponding alcohol, such as PGH2) were measured. The cyclooxygenase assay was performed by following the conversion of [^3 H] arachidonic acid [Dupont-New England Nuclear Research Products, Boston, Mass.] to [^3 H]PHG2 and [^3 H]PHE2 [Mitchell et al. Proc. Natl. Acad. Sci. USA 90:11693-11697, 1994]. Peroxidase activity was measured by monitoring the oxidation of N,N,N',N', tetramethyl-p-phenylenediamine at 611 nm [Iwata et al., Arch. Biochem. Biophys. 282:70-77 (1990)].

[2] = Peroxidase activity: oxidation of tetramethyl-p-phenylenediamine at 611 nm; assay type: biochemical; conditions: purified preparations from either expression system
Protocol: as §1

protein kinase A (PKA) = test: In vitro kinase assay, phosphorylation of 20α-HSD by PKA; assay type: biochemical; conditions: bacterially expressed enzyme, [γ-32P]ATP
Protocol: (§2) Purified recombinant 20α-HSD (of the bacterial expression system) was incubated with various protein kinases after an initial incubation with alkaline phosphatase (to ensure that the protein was in a non-phosphorylated state) and subsequently assayed for 20α-HSD activity.
(§3) More particularly, purified bacterially expressed recombinant 20α-HSDwas first incubated in […] Tris-HCl (pH 8), 1 mM MgCl2, 1 mg/ml BSA, 0.5 mM dithiothreitol, and 60 U alkaline phosphatase coupled to agarose beads for 30 min. at 30° C. After centrifugation, the supernatant containing 20α-HSD was used as a substrate in various in vitro kinase assays. The protein kinase A (PKA), protein kinase C (PKC) and insulin receptor-associated tyrosine kinase activities were measured as described previously [Raz et al., Biochem. J. 269:603-607 (1990), Azhar et al., Am J. Physiol, 260:E1-E7 (1991)]. src kinase (p60^src) activity was assayed as described by Simonson and Herman [Simonson et al., J. Biol Chem., 268:9347-9357 (1993)]. […]

purified rat liver PKC = test: In vitro kinase assay, phosphorylation of 20α-HSD by PKC; assay type: biochemical; conditions: bacterially expressed enzyme, [γ-32P]ATP
Protocol: as §2, §3

src kinase (p60^src) = test: In vitro kinase assay, phosphorylation of 20α-HSD by src kinase; assay type: biochemical; conditions: bacterially expressed enzyme
Protocol: as §2
(§4) More particularly, purified bacterially expressed recombinant 20α-HSDwas first incubated in […] Tris-HCl (pH 8), 1 mM MgCl2, 1 mg/ml BSA, 0.5 mM dithiothreitol, and 60 U alkaline phosphatase coupled to agarose beads for 30 min. at 30° C. After centrifugation, the supernatant containing 20α-HSD was used as a substrate in various in vitro kinase assays. The protein kinase A (PKA), protein kinase C (PKC) and insulin receptor-associated tyrosine kinase activities were measured as described previously [Raz et al., Biochem. J. 269:603-607 (1990), Azhar et al., Am J. Physiol, 260:E1-E7 (1991)]. src kinase (p60^src) activity was assayed as described by Simonson and Herman [Simonson et al., J. Biol Chem., 268:9347-9357 (1993)].

[3] = system: insulin receptor-associated tyrosine kinase; test: In vitro kinase assay, phosphorylation of 20α-HSD by insulin receptor tyrosine kinase; assay type: biochemical; conditions: bacterially expressed enzyme
Protocol: as §2, §4

[4] = system: Pregnant Sprague-Dawley rats; test: Anti-reproductive effect in pregnant rats: serum progesterone (RIA) and termination of pregnancy; assay type: in vivo, rat
Protocol: Pregnant Sprague-Dawley rats were treated with purified 20α-HSD produced by a bacterial expression system (see Example 1) to assess the effect of the enzyme on (1) progesterone levels and (2) the possible termination of pregnancy. More particularly, animals were divided into two treatment groups (7 rats per group: 6 receiving treatment, 1 control) and were injected (intraperitoneally) with the purified recombinant 20α-HSD and an eqimolar dose of NADPH. Injections were administered on day 8 of pregnancy and continued for 72 hours.
Group 1 received intraperitoneal injections of the purified 20α-HSD (167 μg with an equimolar dose of NADPH) every 4 hours, continuing for 72 hours. Group 2 received intraperitoneal injections of the purified 20α-HSD (250 μg with an equimolar dose of NADPH) every 6 hours, continuing for 72 hours. The control treatment groups received an equal amount of GST alone with an eqimolar dose of NADPH. Blood samples were collected every 12 hours via jugular veins. Serum progesterone levels were determined by standard radioimmunoassay techniques [Gibori et al., Endocrinology 100:1483-1495 (1977)].

recombinant 20α-HSD = target: T1, recombinant 20α-HSD; test: Catalytic activity of phosphorylated versus non-phosphorylated 20α-HSD, radiochemical; assay type: biochemical; design: a DNA fragment of 1.2 Kb containing the entire coding region of 20α-HSD; GST (removed with thrombin) (N, cleaved yes); made in house; host or cells: E. coli DH5α (pGEX-4T-2)
Protocol: Enzyme activity of the recombinant 20α-HSD was determined by the rate of conversion of [1-2^3 H]-20α-hydroxy-pregn-4-ene-3-one (20α-hydroxprogesterone) to [1,2^3 H]progesterone in the presence of NADPH as described by Jones & Hsueh [J. Biol. Chem. 256:1248-1254 (1981)]. Enzyme activity was measured in this manner due to the fact that in an in vitro setting the reaction may be reversed, i.e. conversion of 20α-hydroxyprogesterone to progesterone. The assay mixtures (0.05 ml) contained 100 μM [1,2^3 H]hydroxyprogesterone [Dupont-New England Nuclear Research Products, Boston Mass.] […] Following incubation at 37° C. for 30 minutes, the [^3 H]progesterone content of each sample was determined after isolation by thin layer chromatography isolation. One unit of enzyme activity is defined as that amount of enzyme catalyzing the formation of 1 nmol of [^3 H]progesterone/minute from [1,2^3 H]hydroxyprogesterone. Specific activity is expressed as units/min/mg protein. The protein concentration was determined by the Bradford method using bovine serum albumin [Sigma Chemical Co, St. Louis, Mo.] as the standard [Bradford, Anal. Biochem. 72:248-254 (1976)]. […] Acta. 799:51-58 (1984); Noda et al., Biochim Biophys. Acta. 1079:112-118 (1991)]. […]

20α-HSD mRNA = test: Northern blot of corpus luteum 20α-HSD mRNA in hypophysectomized pregnant rats; assay type: in vivo, rat; conditions: rats hypophysectomized day 3, 125 μg twice daily, tissue on day 7
Protocol: For these studies, Holtzman pregnant rats were hypophysectomized on day 3 and treated with either prolactin (NIADDK oPRL-18, 125 μg, twice daily) or with vehicle (control). On day 7, corpus luteum and various other tissues (brain, decidua, ovary, and uterus) were obtained for analysis.
Total RNA from the harvested tissues was isolated by the method of Chomzynski and Sacchi [Anal. Biochem. 162:156-159 (1984)] and equal aliquots (20 μg) were electrophoresized and transferred to nylon membranes, or slot blotted onto Genescreen (DuPont, Wilmington, Del.) membrane. RNA was prehybridized for 16 hours at 42° C. in 40% formamide, 6×SSC, 5×Denhardt's, 20 mM NaH2 PO4, 0.2% SDS and 100 μg/ml salmon sperm DNA. Hybridization was completed in the same solution with the addition of ^32 P-labeled rat 20α-HSD cDNA (10^6 cpm/ml) at 42° C. for 12-16 hours. Blots were washed twice in 05.×SSC and 0.1% SDS (15 minutes, room temperature), twice in 0.2×SSC and 0.1% SDS (15 minutes, 42° C.), twice in 0.2×SSC and 0.1% SDS (15 minutes, 56° C.) and twice in 01.×SSC and 0.1% SDS (15 minutes, 56° C.).

[5] = Group 1 protocol, laparoscopy at 72 hour end point

Molecule | cyclooxygenase activity [1] | peroxidase activity [2] | phosphorylation of 20α-HSD by PKA (protein kinase A (PKA)) | phosphorylation of 20α-HSD by PKC (purified rat liver PKC) | phosphorylation of 20α-HSD by src kinase (src kinase (p60^src)) | phosphorylation of 20α-HSD by insulin-receptor-associated tyrosine kinase [3] | time to significant decline of serum progesterone levels ([4]; Group 1: 167 μg i.p. every 4 hours) [h] | animals aborted totally [4, 5] [animals] | animals partially aborting [4, 5] [animals] | time to significant decline of serum progesterone levels ([4]; Group 2: 250 μg i.p. every 6 hours) [h] | time to termination of pregnancy ([4]; pregnant rats, i.p. with equimolar NADPH from day 8 of pregnancy) [h] | circulating progesterone ([4]; pregnant rats, i.p. with equimolar NADPH from day 8 of pregnancy, bacterially expressed enzyme) | 20α-HSD activity after phosphorylation with PKA (recombinant 20α-HSD) | 20α-HSD activity after phosphorylation with PKC (recombinant 20α-HSD; ATP-Mg2+, diacylglycerol, phosphatidylserine) | expression of 20α-HSD mRNA in corpora lutea (20α-HSD mRNA)
B1 | Neither peroxidase not cyclooxygenase activity was detected | Neither peroxidase not cyclooxygenase activity was detected | readily phosphorylated | readily phosphorylated | failed to phosphorylate | failed to phosphorylate | ≤ 48 | 5 | 2 | 60 | ≤ 72 | marked decrease | not significantly affected | unaffected | 
B2 |  |  |  |  |  |  |  |  |  |  |  |  |  |  | markedly reduced
